Experimental data published in the nanobody polyreactivity screen of Harvey et al. (2022).

assay: yeast display, Sf9 membrane polyspecificity reagent, FACS + sequencing; frameworks hold sequencing errors
Outline: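 Nanobodies from a synthetic yeast display library (Saccharomyces cerevisiae BJ5465), induced 36–48 hours with galactose, were stained 1 hour at 4 °C with 10% biotinylated, detergent-solubilized Sf9 membrane reagent, enriched on streptavidin microbeads, then FACS-sorted. Anti-HA (expression) and streptavidin (reagent binding) fluorescence set low and high (top ~1%) gates. Polyreactivity labels come from the gate of origin. Genes were colony-PCR amplified, MiSeq 2 × 250 sequenced and filtered by CDR length.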

Sequence | polyreactivity (PSR sort gate)
QVQLVESGGGLVQAGGSLRLSCAASGSTFSHNAMGWSIQAPWKERELLASISSGANTYYADSVKGRFTISRDNAKNTVYLHMNSLKPEVTAVYYCAAGAHAYDHYSWFYFRMHYWGQGTQVTVSS | low polyreactivity
QVQLVESGGGLVQAGGSLRLSCAASGSTFSHNAMGWYRQAPGKERELVAAIRWNGGSTHYADSVKVRFTISRDNAKNTVYLQMNSLKPEDTAVYYCAKENHYFTQGYGYWGQGTQVTVSS | low polyreactivity
QVQLVESGGGLVQAGGSLRLSCAASGSTFSHYAMGWYRQAPGKERELVATITYSGGSTYYADSVKGRFTISRDNAKNTVYLQMNSMKPEDTAVYYCAARPRFITYKRYYWGQGTQVTVSS | high polyreactivity
QVQLVESGGGLVQAGGSLRLSCAASGSTFSIYAMGWYRPAPGKERELVAAITGTVGSTYYADSVKGRFTISRDNAKNTVYLQMNSLKPEDTAVYYCAARQVNYDYDYWGQGTQVTVSS | low polyreactivity
QVQLVESGGGLVQAGGSLRLSCAASGSTFSIYAMGWYRQAPGKEREFVAAISSSSGSTYYADSVKGRFTISRDNAMNTVYLQMNSLKPEDTAVYYCIRRYRRGGVKGVYYWGQGTQVTVSS | high polyreactivity
QVQLVESGGGLVQAGGSLRLSCAASGSTFSIYAMGWYRQAPGKERELVAAISSDSTYYADSVKGRFTISRDNAKNSVYLQMNSLKPEDTAVYYCAADPYFPKYYYWGQGTQVTVSS | low polyreactivity
QVQLVESGGGLVQAGGSLRLSCAASGSTFSIYAMGWYRQAPGKERELVAAISSDSTYYADSVKGRFTISRDNAKNTVYLQMNSLKPEDTAVYYCAADPYFPKYYYWGQGTQVTVSS | low polyreactivity
QVQLVESGGGLVQAGGSLRLSCAASGSTFSKNAMAWYRQAPGKERELVASISSSGGSTYYADSVKGRFTISRDTAKNTVYLQLNSLKPEDTAVSYCATRRGRGYYYWGQGTQVTVSS | high polyreactivity
QVQLVESGGGLVQAGGSLRLSCAASGSTFSKNAMGWYRQAPGKERELVAAINWSTGSTHYADSVKGRFTISRDNAKNTVYLQMNRLKPEDTAVYYCAAEGPKQYDYWGQGTQVTVSS | low polyreactivity
QVQLVESGGGLVQAGGSLRLSCAASGSTFSKYAMGCYRQAPGKERELVAAISSGGRTNYADSVKGRFTISRDNAKNTVYLQMNSLKPEDTAVYFCAALLGYWAYYYWGQGSQVTVSS | low polyreactivity
QVQLVESGGGLVQAGGSLRLSCAASGSTFSKYAMGWYRQAPGKERELVAGISRRVGSTYYADSVKGRFTISRDNAKNTVYFQMNSLKPEDTAVYYCNKVRGYPWQVVGYDYWGQGTQVTVSS | high polyreactivity
QVQLVESGGGLVQAGGSLRLSCAASGSTFSKYAMGWYRQAPVKERELVAGIRGRGGSAYYADSVKGRFTISRDNAKNTVYLQMNSLKPEDTAVYYCAKEARLWGQGTQVTVSS | low polyreactivity
QVQLVESGGGLVQAGGSLRLSCAASGSTFSKYVMGWYRQATGKERELVAAISGGDRTYYADSVKGRFTISRDNAKNTVYLQMNSLKPEDTAVYYCAAEVLKTRWSYDYWGQGTQVTVSS | high polyreactivity
QVQLVESGGGLVQAGGSLRLSCAASGSTFSLYAMGWYRQAPGKERELVASSRWSGGRTYDADSVKGRFTISRDNAKNTVYLQMNSLKPEDTAVYYCAAAWRYGYGYLGQGTQVTVSS | high polyreactivity
QVQLVESGGGLVQAGGSLRLSCAASGSTFSNNAMGWYRQAPGKERELVASTNYADSVKGRFTISRDNAKNTVYLQMNSLKPEDTAVYYCAAGAYPSWGHDYWGQGTQVTVSS | low polyreactivity
QVQLVESGGGLVQAGGSLRLSCAASGSTFSPYALGWYRQATGKERELVAAISASGVGTYYADSVKGRFTISRDYAKNPVYLQMNRLIPEDTAVYYCCRDYGWDISKGRYGYWGQGTQVTVSS | low polyreactivity
QVQLVESGGGLVQAGGSLRLSCAASGSTFSPYAMGCYRQAPGKERELVAAINYSSGSTYYADSVKGRFTISRDNAMNTVYLQLNSLKPEDTAVYYCATGWYAGFTYDYWGQGTQVTVSS | low polyreactivity
QVQLVESGGGLVQAGGSLRLSCAASGSTFSPYAMGWYRQAPGKERELVAAIRRGGSTNYADSVKGRFTISRDNAKNTVYLQMNSLKPEDTAVYYCAATKRRFVKFDYWGQGTQVTVSS | low polyreactivity
QVQLVESGGGLVQAGGSLRLSCAASGSTFSPYAMGWYRQAPGKERELVAGITSSGGDTYYADSVKGRFTISRDNAKNTVYLQMNSLKPEDTAVYYCAAGLQGYPRKFNYWGQGTQVTVSS | low polyreactivity
QVQLVESGGGLVQAGGSLRLSCAASGSTFSQNAMGWYRQAPGKERELVAVISSSGGRTNYADSVKGRFTISRDNAKNTVYLQMNSLKPEDSAVYYCAKRLRVLYYYWGQGTQVTVSS | high polyreactivity
QVQLVESGGGLVQAGGSLRLSCAASGSTFSQNAMGWYRQAPGKERELVAVISSSGGRTNYADSVKGRFTISRDNAKNTVYLQMNSLKPEDTAVYYCAKRLRVLYYYWGQGTQVTVSS | high polyreactivity
QVQLVESGGGLVQAGGSLRLSCAASGSTFSQYAMGWYRQAPGKERELVAAITGSTGSTYYADSVKGRFTISRDNAKNTVYLQMNSLKPEDTAVYYCAAVSSNARHVSRRRGYYWGQGTQVTVSS | high polyreactivity

Sequence | polyreactivity (PSR sort gate)
QVQLVESGGGLVQAGGSLRLSCAASGSTFSQYAMGWYRQAPGKERELVAAITRGGRTYYADSVKGRFTISRDNAKNTVYLQMNSLKPEDTAVYYCNAVLGLLYGYDYWGQGTQVTVSS | high polyreactivity
QVQLVESGGGLVQAGGSLRLSCAASGSTFSRDAMRWYRQPPGKERELVAAISSVGDTYYADSVKGRFTISRDNAKNTVYLQMNSLKPEDTAVYYCGATFVVKGTRFGYWGQGTQVTVSS | high polyreactivity
QVQLVESGGGLVQAGGSLRLSCAASGSTFSRNAMGWSRQAPGKERELVAAISRRGGTTNYADSVKGRFTISRDNAKNTVYLQMNSLKPEDTAVYYCNAQPGDYWGQGTQVTVSS | high polyreactivity
QVQLVESGGGLVQAGGSLRLSCAASGSTFSRNAMGWYRQAPGKERELVAGITTSGGRTYYADSVKGRFTISRDNAKNTVYLQMNSLKPEDTAVYYCANSGYRYFYGRPRFDYWGQGTQVTVSS | high polyreactivity
QVQLVESGGGLVQAGGSLRLSCAASGSTFSRNTMGWYRQAPGKERELVAAISKSGGRTYYADSVKGRFTISRDNAKNTVYLQMNSLKPEDTAVYYCNAAVYAYASDYWGQGTQVTVSS | high polyreactivity
QVQLVESGGGLVQAGGSLRLSCAASGSTFSRYAMGLYRQATGKDRELVAAISWRGGRTYYADSVKGRFTISRDNAKNTVYLQMNSLKPEDTAVDYCAGLGDDATSYGYWGHGTQVTVSS | high polyreactivity
QVQLVESGGGLVQAGGSLRLSCAASGSTFSRYAMGWYRQAPGKERELVAAISSSGGSTYYADSVKGRFTISRDNAKNTVYLQMNSLKPEDTAVYYCAARIWRTRRYDYWGQGTQVTVSS | high polyreactivity
QVQLVESGGGLVQAGGSLRLSCAASGSTFSRYAMGWYRQAPGKERELVAAISWRGGRTYYADSVKGRFTISRDNAKNTVYLQMNSLKPADTAVYYCNAVSYFTSQRYDYWGQGTQVTVSS | high polyreactivity
QVQLVESGGGLVQAGGSLRLSCAASGSTFSRYTMGWYRQAPGKERELVAAISYRGGSTYYADSVKGRFTISRDNAKNTVYLQMNSLKPEDTAVYYCAAEYRVEGSDYDYWGQGSQVTVSS | low polyreactivity
QVQLVESGGGLVQAGGSLRLSCAASGSTFSRYTMGWYRQAPGKERELVAAITWSGGRTYYADSVKGRFTISRDNAKNTVYLQMNSLKPEDTAVSYCNVDSSRYSGYDYWGQGTQVTVSS | high polyreactivity
QVQLVESGGGLVQAGGSLRLSCAASGSTFSSNAMGWYRQAPGKERELVAAIDRGGSTYYADSVKGRFTISRDNAKNTVYLQMNSLKPEDTAVYYCAKGFDFRRRYDYWGQGTQVTVSS | low polyreactivity
QVQLVESGGGLVQAGGSLRLSCAASGSTFSSYAMAWYRQAPGKERELVAAISSVGVDTYYADSVKGRFTISRDNAKNTVYLQMISLKPEDTAVYYCAAGRYGWWRHYFVFKYDYWGQGTQVTVSS | low polyreactivity
QVQLVESGGGLVQAGGSLRLSCAASGSTFSSYAMGWYIQAPGKERELVAAITSSGGTTYYSDSVKGRFTISRDNAKNTVYLQMNSLKPEDTAVYYCAAADVIFWLYYYWGQGTQVTVSS | low polyreactivity
QVQLVESGGGLVQAGGSLRLSCAASGSTFSSYAMGWYRPAPGKERELVAAITSSGGSTYYADSVKGRFTISRDNAKNTVYLQMNSLKPEDTAVYYCAAADVIFWLYYYWGQGTQVTVSS | low polyreactivity
QVQLVESGGGLVQAGGSLRLSCAASGSTFSSYAMGWYRQAPGKERELVAAINWSGTRTYYADSVKGRFTISRDNAKNTVYLQMNSLKPEDTAVYYCAAVLSLSSRQGVITKGDYWGQGTQVTVSS | low polyreactivity
QVQLVESGGGLVQAGGSLRLSCAASGSTFSSYAMGWYRQAPGKERELVAAISSSGVRTYYADSVKGRFTISRDNAKNSVYLQMNSLKPEDTAVYYCKLTLLTVNRTGMTTWGQGTQVTVSS | high polyreactivity
QVQLVESGGGLVQAGGSLRLSCAASGSTFSSYAMGWYRQAPGKERELVAGIAWGGSSTDYADSVKWRFTISRDTAKNTVYLQMNSLKPEDTAVYYCARRYRRGWSTLDYWGQGTQVTVSS | low polyreactivity
QVQLVESGGGLVQAGGSLRLSCAASGSTFSTNAMGWYRQAPAKERELVAAISYSGGSTYYADSVKGRFTISRDNAKNTVYLQMLSLKPEDTAVYYCAADGYYYNSGGRYYEFYYWGQGTQVTVSS | low polyreactivity
QVQLVESGGGLVQAGGSLRLSCAASGSTFSTNAMGWYRQAPGKESELVASITRSGGSTYYADSVKGRFTISRDNAKNTVYLQMNSLKPEDTAVYYCNADGYYDYDYGYWGQGTQVTVSS | low polyreactivity
QVQLVESGGGLVQAGGSLRLSCAASGSTFSTNAMGWYSPAPGKERELVAASTVSGGRTYYADSVKGRFTISRDNAKNTVYLQMNSLKPEDTAVYYCATDTSRLSIFGYVSFYYWGQGTQVNVSS | low polyreactivity
QVQLVESGGGLVQAGGSLRLSCAASGSTFSVNAMGWYRQAPGKEREFVAAIRWPGGSTYYADSVKGRFTFSRDKAKNTVYLQMNSLKPEDTAVYYCAARIKYRYDWGQGTQVTVSS | low polyreactivity
